B1: LovD (Aspergillus terreus) (protein)
chain: MGSIIDAAAAADPVVLMETAFRKAVKSRQIPGAVIMARDCSGNLNYTRCFGARTVRRDECNQLPPLQVDTPCRLASATKLLTTIMALQCMERGLVDLDETVDRLLPDLSAMPVLEGFDDAGNARLRERRGKITLRHLLTHTSGLSYVFLHPLLREYMAQGHLQSAEKFGIQSRLAPPAVNDPGAEWIYGANLDWAGKLVERATGLDLEQYLQENICAPLGITDMTFKLQQRPDMLARRADQTHRNSADGRLRYDDSVYFRADGEECFGGQGVFSGPGSYMKVLHSLLKRDGLLLQPQTVDLMFQPALEPRLEEQMNQHMDASPHINYGGPMPMVLRRSFGLGGIIALEDLDGENWRRKGSLTFGGGPNIVWQIDPKAGLCTLAFFQLEPWNDPVCRDLTRTFEHAIYAQYQQG

What was measured:
[1] = target: LovF (Aspergillus terreus, UniProt Q9Y7D5); experiment: FTMS of ACP-bound diketide; type: biochemical; details: with SAM and NADPH; covalent loading on ACP
LovF, sequence (Q9Y7D5 whole entry): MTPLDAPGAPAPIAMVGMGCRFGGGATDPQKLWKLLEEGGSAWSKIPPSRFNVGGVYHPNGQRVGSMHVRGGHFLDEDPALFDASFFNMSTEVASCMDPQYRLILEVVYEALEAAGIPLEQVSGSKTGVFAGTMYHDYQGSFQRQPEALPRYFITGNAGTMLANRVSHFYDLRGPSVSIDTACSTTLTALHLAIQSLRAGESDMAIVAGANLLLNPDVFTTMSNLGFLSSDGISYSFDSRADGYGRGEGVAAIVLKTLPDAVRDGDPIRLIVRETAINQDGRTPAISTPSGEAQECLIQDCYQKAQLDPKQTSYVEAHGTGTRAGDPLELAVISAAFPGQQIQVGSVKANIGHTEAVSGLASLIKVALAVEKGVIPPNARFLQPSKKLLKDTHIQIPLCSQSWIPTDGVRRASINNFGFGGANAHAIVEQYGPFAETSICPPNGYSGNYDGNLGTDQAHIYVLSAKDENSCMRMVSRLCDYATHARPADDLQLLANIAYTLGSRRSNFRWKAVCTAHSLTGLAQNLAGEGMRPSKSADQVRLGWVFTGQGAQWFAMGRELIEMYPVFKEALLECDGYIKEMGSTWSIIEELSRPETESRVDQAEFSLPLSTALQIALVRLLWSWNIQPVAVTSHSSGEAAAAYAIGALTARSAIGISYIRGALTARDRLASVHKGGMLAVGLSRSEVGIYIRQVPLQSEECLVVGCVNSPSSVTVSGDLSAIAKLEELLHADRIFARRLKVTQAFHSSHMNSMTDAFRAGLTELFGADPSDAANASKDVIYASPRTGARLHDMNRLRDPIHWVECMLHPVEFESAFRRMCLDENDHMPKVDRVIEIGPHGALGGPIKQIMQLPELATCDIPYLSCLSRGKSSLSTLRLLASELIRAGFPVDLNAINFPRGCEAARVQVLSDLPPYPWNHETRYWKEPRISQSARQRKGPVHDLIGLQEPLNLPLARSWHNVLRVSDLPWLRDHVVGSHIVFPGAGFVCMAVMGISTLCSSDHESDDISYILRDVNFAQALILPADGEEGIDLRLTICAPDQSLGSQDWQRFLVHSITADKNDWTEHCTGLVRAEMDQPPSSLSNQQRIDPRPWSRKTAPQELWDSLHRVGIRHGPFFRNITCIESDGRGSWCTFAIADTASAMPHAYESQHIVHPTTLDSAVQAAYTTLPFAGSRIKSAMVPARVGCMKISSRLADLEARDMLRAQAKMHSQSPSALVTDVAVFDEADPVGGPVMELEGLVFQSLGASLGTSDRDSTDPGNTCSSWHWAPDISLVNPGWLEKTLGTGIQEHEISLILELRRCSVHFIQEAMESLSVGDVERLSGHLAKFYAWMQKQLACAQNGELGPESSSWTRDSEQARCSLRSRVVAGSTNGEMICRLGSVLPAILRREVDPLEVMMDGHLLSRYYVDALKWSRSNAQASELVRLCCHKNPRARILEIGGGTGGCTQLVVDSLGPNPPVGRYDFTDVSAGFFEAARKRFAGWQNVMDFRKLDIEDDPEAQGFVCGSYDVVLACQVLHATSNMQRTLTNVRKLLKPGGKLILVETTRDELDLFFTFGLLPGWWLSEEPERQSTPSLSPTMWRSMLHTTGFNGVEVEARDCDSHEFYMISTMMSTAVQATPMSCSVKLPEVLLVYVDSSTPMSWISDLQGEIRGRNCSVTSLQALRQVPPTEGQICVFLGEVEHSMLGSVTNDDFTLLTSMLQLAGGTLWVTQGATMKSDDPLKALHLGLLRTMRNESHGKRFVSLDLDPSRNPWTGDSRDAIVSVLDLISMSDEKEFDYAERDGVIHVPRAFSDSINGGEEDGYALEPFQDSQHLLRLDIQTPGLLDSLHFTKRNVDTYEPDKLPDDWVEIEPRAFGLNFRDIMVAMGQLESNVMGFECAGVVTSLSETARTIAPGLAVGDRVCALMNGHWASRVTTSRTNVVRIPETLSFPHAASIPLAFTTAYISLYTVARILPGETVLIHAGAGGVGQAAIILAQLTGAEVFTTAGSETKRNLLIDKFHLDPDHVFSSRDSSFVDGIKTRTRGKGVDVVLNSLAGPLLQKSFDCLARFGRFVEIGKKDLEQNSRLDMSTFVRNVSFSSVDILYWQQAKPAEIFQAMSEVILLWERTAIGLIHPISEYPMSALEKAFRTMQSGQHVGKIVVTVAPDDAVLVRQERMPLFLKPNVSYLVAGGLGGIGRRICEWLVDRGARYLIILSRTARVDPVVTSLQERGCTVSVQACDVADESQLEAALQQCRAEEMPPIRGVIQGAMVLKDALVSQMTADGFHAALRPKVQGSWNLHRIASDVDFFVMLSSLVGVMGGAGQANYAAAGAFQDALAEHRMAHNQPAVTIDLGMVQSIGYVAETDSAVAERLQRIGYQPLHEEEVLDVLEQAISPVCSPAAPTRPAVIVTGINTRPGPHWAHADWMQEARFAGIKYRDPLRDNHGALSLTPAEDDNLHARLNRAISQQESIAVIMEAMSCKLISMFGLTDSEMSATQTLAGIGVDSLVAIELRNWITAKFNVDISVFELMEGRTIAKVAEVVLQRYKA

[2] = substrate: CC[C@H](C)C(=O)SCCNC(C)=O; experiment: initial velocity of lovastatin formation by HPLC; type: biochemical, Aspergillus terreus; details: acyl donor; acyl acceptor monacolin J
[3] = substrate: CC[C@H](C)C(=O)SCCNC(=O)CCNC(=O)[C@H](O)C(C)(C)COP(=O)(O)OP(=O)(O)OC[C@H]1O[C@@H](n2cnc3c(N)ncnc32)[C@H](O)[C@@H]1OP(=O)(O)O; experiment: initial velocity of lovastatin formation by HPLC; type: biochemical, Aspergillus terreus; details: acyl donor; acyl acceptor monacolin J

Molecule	FTMS of ACP-bound diketide; LC-MS of product released by LovD [1]	Km [2]	kcat [2]	kcat/Km [2]	Km [3]	kcat [3]	kcat/Km [3]
CC(C)(COP(=O)(O)OP(=O)(O)OC[C@H]1O[C@@H](n2cnc3c(N)ncnc32)[C@H](O)[C@@H]1OP(=O)(O)O)[C@@H](O)C(=O)NCCC(=O)NCCSC(=O)CC(=O)O [malonyl-CoA]	we incubated LovF with malonyl-CoA, SAM and NADPH	–	–	–	–	–	–
B1	–	9.2 ± 0.9 mM	0.0004 ± 1.67e-05 s⁻¹	0.0267 M⁻¹ s⁻¹	2.5 ± 0.31 mM	0.00283 ± 0.000167 s⁻¹	1.15 M⁻¹ s⁻¹

From publication PMC2878198 (Journal of the American Chemical Society, 2009)
